Data on one protein can be found in patent US6960559.

The data set relates to T1, cbz-FAF[125I]Y-NH2.
T1 sequence: FAFY

B1: papain (enzyme, UniProt P00784 134-345, looked up)
Papain: IPEYVDWRQKGAVTPVKNQGSCGSCWAFSAVVTIEGIIKIRTGNLNEYSEQELLDCDRRSYGCNGGYPWSALQLVAQYGIHYRNTYPYEGVQRYCRSREKGPYAAKTDGVRQVQPYNEGALLYSIANQPVSVVLEAAGKDFQLYRGGIFVGPCGNKVDHAVAAVGYGPNYILIKNSWGTGWGENGYIRIKRGTGNSYGVCGLYTSSFYPVKN
On to B1, for which the Amount necessary to degrade 50% of substrate in 30 min amounted to 2 µg.
